Experimental data taken from the supplement of paper PMC9112550, “Optimization of the antimicrobial peptide Bac7 by deep mutational scanning” (BMC Biology, 2022).

Test system: Escherichia coli TOP10
Experiment: shrunken log2 fold change of peptide-encoding DNA abundance (4.5 h post-induction vs induction); higher = less antimicrobial activity (less host growth inhibition)
Details: time post-induction: 4.5 h; library: site-saturation at positions 5, 18, 19, 20
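Note: peptides expressed intracellularly from a pBAD plasmid library in pooled LB shake-flask culture, induced with 0.3% L-arabinose, DNA abundance read by NGS, three biological replicates, DESeq2 with apeglm shrinkage.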

| Sequence | shrunken log2 fold change |
| --- | --- |
| RRIRHRPPRLPRPRPRPHPIPRP | -0.107 |
| RRIRHRPPRLPRPRPRPHPVPRP | -0.248 |
| RRIRHRPPRLPRPRPRPHQTPRP | -0.0667 |
| RRIRHRPPRLPRPRPRPHRSPRP | -0.0796 |
| RRIRHRPPRLPRPRPRPHSFPRP | -0.0282 |
| RRIRHRPPRLPRPRPRPHSMPRP | -0.337 |
| RRIRHRPPRLPRPRPRPHVDPRP | 0.0392 |
| RRIRHRPPRLPRPRPRPHVPPRP | 0.084 |
| RRIRHRPPRLPRPRPRPHWNPRP | -0.407 |
| RRIRHRPPRLPRPRPRPHYTPRP | -0.903 |
| RRIRHRPPRLPRPRPRPIANPRP | -0.24 |
| RRIRHRPPRLPRPRPRPIARPRP | 0.116 |
| RRIRHRPPRLPRPRPRPICQPRP | -0.113 |
| RRIRHRPPRLPRPRPRPIDEPRP | 0.142 |
| RRIRHRPPRLPRPRPRPIDHPRP | -0.267 |
| RRIRHRPPRLPRPRPRPIDYPRP | -0.017 |
| RRIRHRPPRLPRPRPRPIEIPRP | -0.161 |
| RRIRHRPPRLPRPRPRPIERPRP | 0.00211 |
| RRIRHRPPRLPRPRPRPIFEPRP | -0.0251 |
| RRIRHRPPRLPRPRPRPIHNPRP | -0.545 |
| RRIRHRPPRLPRPRPRPIICPRP | -0.168 |
| RRIRHRPPRLPRPRPRPIIFPRP | -0.249 |
| RRIRHRPPRLPRPRPRPIILPRP | -0.113 |
| RRIRHRPPRLPRPRPRPIIQPRP | -0.348 |
| RRIRHRPPRLPRPRPRPIITPRP | -1.46 |

| Sequence | shrunken log2 fold change |
| --- | --- |
| RRIRHRPPRLPRPRPRPIMAPRP | -0.383 |
| RRIRHRPPRLPRPRPRPIMCPRP | -0.245 |
| RRIRHRPPRLPRPRPRPIMIPRP | -0.192 |
| RRIRHRPPRLPRPRPRPINLPRP | -0.0477 |
| RRIRHRPPRLPRPRPRPINPPRP | -0.0815 |
| RRIRHRPPRLPRPRPRPIPMPRP | -0.0582 |
| RRIRHRPPRLPRPRPRPIQSPRP | -0.0918 |
| RRIRHRPPRLPRPRPRPIRMPRP | -0.217 |
| RRIRHRPPRLPRPRPRPIRSPRP | -0.0062 |
| RRIRHRPPRLPRPRPRPIRTPRP | -0.0747 |
| RRIRHRPPRLPRPRPRPISCPRP | -0.0318 |
| RRIRHRPPRLPRPRPRPITLPRP | 0.0184 |
| RRIRHRPPRLPRPRPRPITVPRP | -0.0184 |
| RRIRHRPPRLPRPRPRPIVEPRP | -0.133 |
| RRIRHRPPRLPRPRPRPIWFPRP | 1.65 |
| RRIRHRPPRLPRPRPRPIWIPRP | 0.0409 |
| RRIRHRPPRLPRPRPRPIYPPRP | -0.158 |
| RRIRHRPPRLPRPRPRPKDIPRP | -0.504 |
| RRIRHRPPRLPRPRPRPKDQPRP | -0.172 |
| RRIRHRPPRLPRPRPRPKDYPRP | 0.0577 |
| RRIRHRPPRLPRPRPRPKFFPRP | -0.0649 |
| RRIRHRPPRLPRPRPRPKFQPRP | -0.0213 |
| RRIRHRPPRLPRPRPRPKGAPRP | -0.011 |
| RRIRHRPPRLPRPRPRPKGIPRP | -0.092 |
| RRIRHRPPRLPRPRPRPKHLPRP | -0.237 |

| Sequence | shrunken log2 fold change |
| --- | --- |
| RRIRHRPPRLPRPRPRPKHMPRP | -0.0234 |
| RRIRHRPPRLPRPRPRPKIAPRP | 0.00548 |
| RRIRHRPPRLPRPRPRPKKKPRP | -0.0281 |
| RRIRHRPPRLPRPRPRPKKTPRP | 0.0065 |
| RRIRHRPPRLPRPRPRPKLCPRP | -0.114 |
| RRIRHRPPRLPRPRPRPKLEPRP | -0.0604 |
| RRIRHRPPRLPRPRPRPKNRPRP | -0.227 |
| RRIRHRPPRLPRPRPRPKQYPRP | -0.439 |
| RRIRHRPPRLPRPRPRPKRIPRP | -0.0337 |
| RRIRHRPPRLPRPRPRPKTHPRP | -0.314 |
| RRIRHRPPRLPRPRPRPKVAPRP | -0.049 |
| RRIRHRPPRLPRPRPRPLAGPRP | 0.312 |
| RRIRHRPPRLPRPRPRPLEMPRP | -0.236 |
| RRIRHRPPRLPRPRPRPLFFPRP | -0.171 |
| RRIRHRPPRLPRPRPRPLGMPRP | -0.227 |
| RRIRHRPPRLPRPRPRPLGRPRP | 0.218 |
| RRIRHRPPRLPRPRPRPLGTPRP | -0.129 |
| RRIRHRPPRLPRPRPRPLHNPRP | -0.602 |
| RRIRHRPPRLPRPRPRPLIPPRP | -0.244 |
| RRIRHRPPRLPRPRPRPLIYPRP | -0.569 |
| RRIRHRPPRLPRPRPRPLMWPRP | -0.218 |
| RRIRHRPPRLPRPRPRPLMYPRP | -0.711 |
| RRIRHRPPRLPRPRPRPLNHPRP | -0.785 |
| RRIRHRPPRLPRPRPRPLRLPRP | 0.199 |
| RRIRHRPPRLPRPRPRPLSNPRP | -0.174 |
